T1: Human TIGIT Protein, Fc Tag (ACRO) (human, UniProt Q495A1 22-141)
T1 construct: Bought reagent (ACRO); no catalogue number, no construct limits; also called Human TIGIT Protein, Fc TagTIGIT; not shown: Fc tag
T1 sequence (looked up): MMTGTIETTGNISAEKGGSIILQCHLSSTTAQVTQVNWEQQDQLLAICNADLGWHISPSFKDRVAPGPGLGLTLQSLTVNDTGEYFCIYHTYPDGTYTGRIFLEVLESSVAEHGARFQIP

T2: Human CTLA-4 / CD152 Protein, Fc Tag (ACRO) (human, UniProt P16410 36-161, limits assumed)
T2 construct: Bought reagent (ACRO); no catalogue number, no construct limits; not shown: Fc tag
T2 sequence (looked up): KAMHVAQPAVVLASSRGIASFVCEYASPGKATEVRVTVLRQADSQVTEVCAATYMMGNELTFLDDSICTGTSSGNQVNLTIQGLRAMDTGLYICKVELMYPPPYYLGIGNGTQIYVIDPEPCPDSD

B1: immunosuppressive molecule of plasmid CAR19-C4TT (anti-CTLA4 scFv, linker, anti-TIGIT scFv, IgG4 hinge, CD28 transmembrane region, CD28 co-stimulatory domain), … (other)
chain: QVQLVESGGGVVQPGRSLRLSCAASGFTFSSYGMHWVRQAPGKGLEWVAVIWYDGSNKYYADSVKGRFTISRDNSKNTLYLQMNSLRAEDTAVFYCARAPNYIGAFDVWGQGTMVTVSSGGGGSGGGGSGGGGSDIQMTQSPSSLSASVGDRVTITCRASQGISSWLAWYQQKPEKAPKSLIYAASSLQSGVPSRFSGSGSGTDFTLTISSLQPEDFATYYCQQYNSYPPTFGQGTKVEIKGGGGSGGGGSGGGGSEVQLQQSGPGLVKPSQTLSLTCAISGDSVSSNSAAWNWIRQSPSRGLEWLGKTYYRFKWYSDYAVSVKGRITINPDTSKNQFSLQLNSVTPEDTAVFYCTRESTTYDLLAGPFDYWGQGTLVTVSSGGGGSGGGGSGGGGSDIVMTQSPDSLAVSLGERATINCKSSQTVLYSSNNKKYLAWYQQKPGQPPNLLIYWASTRESGVPDRFSGSGSGTDFTLTISSLQAEDVAVYYCQQYYSTPFTFGPGTKVEIKRESKYGPPCPPCPFWVLVVVGGVLACYSLLVTVAFIIFWVRSKRSRLLHSDYMNMTPRRPGPTRKHYQPYAPPRDFAAYRS
notes: Membrane-anchored on transduced T cells that also express the anti-CD19 CAR
B2: immunosuppressive molecule of plasmid CAR19-AC4 (anti-NKG2A scFv, linker, anti-CTLA4 scFv, IgG4 hinge, CD28 transmembrane region, CD28 co-stimulatory domain), … (other)
chain: EIVLTQSPATLSLSPGERATMTCSASSSVSSYIYWYQQKPGQAPRLLIYLTSNLASGIPARFSGSGSGTDFTLTISSLEPEDFATYYCQQWSGNPYTFGQGTKVEIKGSTSGSGKPGSGEGSTKGEVQLVESGGGLVKPGGSLRLSCAASGFTFSSYAMSWVRQAPGKGLEWVAEISSGGSYTYYPDSVKGRFTISRDNAKNSLYLQMNSLRAEDTAVYYCTRHGDYPRFFDVWGQGTLVTVSSGGGGSGGGGSGGGGSQVQLVESGGGVVQPGRSLRLSCAASGFTFSSYGMHWVRQAPGKGLEWVAVIWYDGSNKYYADSVKGRFTISRDNSKNTLYLQMNSLRAEDTAVFYCARAPNYIGAFDVWGQGTMVTVSSGGGGSGGGGSGGGGSDIQMTQSPSSLSASVGDRVTITCRASQGISSWLAWYQQKPEKAPKSLIYAASSLQSGVPSRFSGSGSGTDFTLTISSLQPEDFATYYCQQYNSYPPTFGQGTKVEIKESKYGPPCPPCPFWVLVVVGGVLACYSLLVTVAFIIFWVRSKRSRLLHSDYMNMTPRRPGPTRKHYQPYAPPRDFAAYRS
notes: as for B1
B3: immunosuppressive molecule of plasmid CAR18.2-PA (anti-PD1 scFv, linker, anti-NKG2A scFv, IgG4 hinge, CD28 transmembrane region, CD28 co-stimulatory domain), … (other)
chain: QVQLVQSGVEVKKPGASVKVSCKASGYTFTNYYMYWVRQAPGQGLEWMGGINPSNGGTNFNEKFKNRVTLTTDSSTTTAYMELKSLQFDDTAVYYCARRDYRFDMGFDYWGQGTTVTVSSGGGGSGGGGSGGGGSEIVLTQSPATLSLSPGERATLSCRASKGVSTSGYSYLHWYQQKPGQAPRLLIYLASYLESGVPARFSGSGSGTDFTLTISSLEPEDFAVYYCQHSRDLPLTFGGGTKVEIKGGGGSGGGGSGGGGSEIVLTQSPATLSLSPGERATMTCSASSSVSSYIYWYQQKPGQAPRLLIYLTSNLASGIPARFSGSGSGTDFTLTISSLEPEDFATYYCQQWSGNPYTFGQGTKVEIKGSTSGSGKPGSGEGSTKGEVQLVESGGGLVKPGGSLRLSCAASGFTFSSYAMSWVRQAPGKGLEWVAEISSGGSYTYYPDSVKGRFTISRDNAKNSLYLQMNSLRAEDTAVYYCTRHGDYPRFFDVWGQGTLVTVSSESKYGPPCPPCPFWVLVVVGGVLACYSLLVTVAFIIFWVRSKRSRLLHSDYMNMTPRRPGPTRKHYQPYAPPRDFAAYRS

What was measured:
Assay in all cases: flow cytometry, soluble tagged antigen staining T cells that carry the construct
[1] = biological target: T1, Human TIGIT Protein, Fc Tag (ACRO)
[2] = biological target: T2, Human CTLA-4 / CD152 Protein, Fc Tag …
[3] = biological target: T3, Human NKG2A&CD94 Protein, Fc Tag (ACRO) (human, UniProt P26715 94-233; Q13241 32-179, limits assumed)
T3 construct: Bought heterodimer reagent (ACRO) with Fc tag
T3 sequence (P26715 94-233 limits assumed, chain 1 of 2): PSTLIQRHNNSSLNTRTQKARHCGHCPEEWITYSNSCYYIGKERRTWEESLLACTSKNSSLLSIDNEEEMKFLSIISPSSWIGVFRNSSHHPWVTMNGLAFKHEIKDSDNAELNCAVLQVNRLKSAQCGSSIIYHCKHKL
T3 sequence (Q13241 32-179 limits assumed, chain 2 of 2): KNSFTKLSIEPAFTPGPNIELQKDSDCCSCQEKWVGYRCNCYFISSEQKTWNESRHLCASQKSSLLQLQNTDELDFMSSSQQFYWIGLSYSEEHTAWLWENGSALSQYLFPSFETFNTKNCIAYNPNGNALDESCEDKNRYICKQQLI

[4] = biological target: T4, Human PD-1 / PDCD1 Protein, His Tag (ACRO) (human, UniProt Q15116 25-167)
T4 construct: Bought reagent (ACRO); no catalogue number, no construct limits; also called CD279; not shown: His tag
T4 sequence (Q15116 25-167 limits assumed): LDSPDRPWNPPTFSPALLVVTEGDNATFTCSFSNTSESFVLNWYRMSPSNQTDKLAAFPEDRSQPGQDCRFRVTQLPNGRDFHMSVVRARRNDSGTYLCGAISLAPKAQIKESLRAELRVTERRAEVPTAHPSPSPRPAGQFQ

Binder	binding result [1]	binding result [2]	binding result [3]	binding result [4]
B1	binds	binds	–	–
B2	–	binds	binds	–
B3	–	–	binds	binds

Source: patent EP4663762A2 (HongKong Bioheng Biotech Limited, dated 2025)
